From the nanobody polyreactivity screen of Harvey et al. (2022) come the findings set out here.

The data set is described as follows: yeast display, Sf9 membrane polyspecificity reagent, FACS + sequencing; frameworks hold sequencing errors. The essentials: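 Galactose induction of a Saccharomyces cerevisiae BJ5465 synthetic nanobody display library ran 36–48 hours. The cells were then stained for 1 hour at 4 °C with 10% biotinylated, detergent-solubilized Sf9 membrane reagent, pulled down on streptavidin microbeads and FACS-sorted into low and high (top ~1%) gates on expression and reagent-binding fluorescence. Labels for polyreactivity follow the gate of origin.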
As for “QVQLVESGGGLVQAGGSLRVSCAASGSTFPSNAMGWYRQAPGKERELVATITSAGGGTYYADSVKGRFTISRDNAKNSVYLQMNSLKAEDTAVYYCNADGPAGDAFDYWGPGTQVTVSS”, the “polyreactivity (PSR sort gate)” value is given as “low polyreactivity”.

In the case of “QVQLVESGGGLVQAGGSLRVSCAASGSTFRVNGMGGYRQAPGKERELLATIRGRGGTTYYADSVKGRFTISRDNAKTTVYLQMNSLKPDDTAVSYCAATNVKRTEGYTPDYDYWGHGTQVTVSS”, the “polyreactivity (PSR sort gate)” value is recorded as “high polyreactivity”.

For “QVQLVESGGGLVQAGGSLRVSCAASGSTFWSNVMGWYRQAPGKERELDSAISYGGVTTSYADSVKGRFTISRDNAKNTVYLQMNSLKPEDTAVYYCATDYVGYYFYESDYWGQGTQVTVSS”, the “polyreactivity (PSR sort gate)” value was “low polyreactivity”. In the case of “QVQLVESGGGLVQAGGSLSFSCAASGSIFDYNAMGWYRQAPGKERELVADIRGIGGSTYYADSVKGRFTISRDNAKNTFYLQMNSLIPEDTAVYYCNTSTLGGYYWGQGTQVTVSS” it was “low polyreactivity”. As for “QVQLVESGGGLVQAGGSLSLICAASGRNFYTYAMGWYRQAPGKERELVAAISWSGGSTYYADSVKGRFTISRDNAKNTVYLQMNSLNPEDTAVYYCNARFRFGWPGYDYWGQGTQVTVSS”, the entry is “high polyreactivity”; as for “QVQLVESGGGLVQAGGSLSLICADTGLTFRVYAMGWYRQAPGKERELVAAISSRGGSTYYADSVKGRFTISRDNAKYTVLLQMNSLKPEDTAVYDCYARGQGGYWGQGTQVTVSS”, “high polyreactivity”; as for “QVQLVESGGGLVQAGGSLSLSCAASGFIFGWYAMGWFRQAPGKERELVAAIYASGTRTYYADSVKGRFTISRDNAKNTVYLQMNSLKPEDTAVYYCNVYTKFVYAYDYWGQGTQVTVSS”, “high polyreactivity”. As to “QVQLVESGGGLVQAGGSLSLSCAASGFNSSHYAMGWYRQAPGKERELVATISSGGSTYADSVKGRFTISRDNAKNTVYLQMNSLKPEDTAVYYCDKGVRYKQYHIMYYWGQGTQVTVSS”, the “polyreactivity (PSR sort gate)” value is listed as “high polyreactivity”.

Consider “QVQLVESGGGLVQAGGSLSLSCAASGFTFGRNAMGWYRQAPGKERELVASIDWSGGSTYYADSVKGRFTISRDNAKNTVYLQMNSLKPEDTAVYYCAVGPNSVGNRSYGFDYWGQGTQVTVSS”, for which the “polyreactivity (PSR sort gate)” value was “low polyreactivity”. On to “QVQLVESGGGLVQAGGSLSLSCAASGFTFYSYTMGWYRQAPGKDREMVAAISGRSVRTYYADSVKGRFTISRDNAKNTVYLQMNSLKPEDTAVYYCARAYYWRTSWYNYWGQGTQVTVSS”, for which the “polyreactivity (PSR sort gate)” value is “high polyreactivity”. With “QVQLVESGGGLVQAGGSLSLSCAASGIIFYNYAMGWYRQAPGKERELVAAISSSGGRTYYAESVKGRFTISRDNAKNTVYLQMNSLKPEDTAVYYCAAYVWAYYVPYNYGYWGQGTQVTVSS”, the “polyreactivity (PSR sort gate)” value is reported as “high polyreactivity”.

Turning to “QVQLVESGGGLVQAGGSLSLSCAASGITLYWYAMRWYIQAPGKERELVATINWSGGSTYYADSVKGRFTISRDNAKNTVYLQMNSLKPEDTAVYYCNVDYSDEGMGYWGQGTQVTVSS”, the “polyreactivity (PSR sort gate)” value is “low polyreactivity”.

Regarding “QVQLVESGGGLVQAGGSLSLSCAASGLIFLQYGMGWYREAPGKERELVAAITTRGGRTYYADSVKRRFTISRDNAKNTVYLQMNSLKPEDTAVYYCAADSEQDNLRYYRWVWYYYWGQGTQVTVSS”, the “polyreactivity (PSR sort gate)” value is listed as “low polyreactivity”. Consider “QVQLVESGGGLVQAGGSLSLSCAASGLIFYIYAMGWYRQAPGKEMELVAAITESGGSTYYADSVKGRFTISRDNAKNTVYLQMNSLKPEDTAVYYCAKDFHNYPSFGEDYWGQGTQVTVSS”, for which the “polyreactivity (PSR sort gate)” value is listed as “low polyreactivity”. As for “QVQLVESGGGLVQAGGSLSLSCAASGLTFANYVMGWYRQEPGKERELVAAISRSGGSTYYADSVKGRFTISRDNAKNTVYLQMNSLKPEDPAVYYCAAAAWDPKGSRYDYWGQGPQVTVSS”, the entry is “low polyreactivity”.

On to “QVQLVESGGGLVQAGGSLSLSCAASGLTFTGNAMGWYRQAPGKERELVAAISWSGGSTYYADSVKGRYTISRDNAKNTVYLQMNSLKPEDTAVYYCGDPDSRYDYWGQGTQVTVSS”, for which the “polyreactivity (PSR sort gate)” value is listed as “high polyreactivity”. In the case of “QVQLVESGGGLVQAGGSLSLSCAASGLTFVYYVMGWYRQAPGKERELVAAISSGGGTYYADSVKGRFTISRDNAKNTVYLQMNSLKPEDTAVYYCAADLLGWFDFDYWGQGTQVTVSS” it was “high polyreactivity”; in that of “QVQLVESGGGLVQAGGSLSLSCAASGRIFADNAMGWYRQSPGKESELVADITYSGGSTYYAESVKGRFTISRDNAKNTLYLQMNSLNPEDTAFYYCAKQCVDYWGQGTQVTVSS”, “low polyreactivity”.

For “QVQLVESGGGLVQAGGSLSLSCAASGRIFNQNAMGWYRQAPGKERELVAAISKSGTRTYYADSVKGRFTISRDNAKNTVYLQMNSLNREDTAVYYCAADYYRRIGGYRYDYDYWGQGTEVTVSS”, the “polyreactivity (PSR sort gate)” value was “high polyreactivity”.

Take “QVQLVESGGGLVQAGGSLSLSCAASGRIFPPYAMGWYRPAPGKERELVAAISVSGSNTYYADSVKGRFTISRYNAKNTVYLQMNSLKPEDTAVYYCNAKRYSPVYYWYDYCGQGTQVTVSS”: the “polyreactivity (PSR sort gate)” value was “high polyreactivity”. Turning to “QVQLVESGGGLVQAGGSLSLSCAASGRIFYYNAMGWYRQAPGKERELVAAITRGGSTYYADSVKGRFTISRDNAKNTVYLQMNSLKPEDTAVYYCAADRTGYSRYTTSVKGQRYYYWGQGTQVTVSS”, the “polyreactivity (PSR sort gate)” value is given as “high polyreactivity”.

Turning to “QVQLVESGGGLVQAGGSLSLSCAASGRIRRYTMGWYRQAPGKERELVASISGNGGSTYYADSVTGRFTISRDNAKNTVYLQMNSLKPEDTAVYDCARTKQEYTFGQFYLGDYWGQGTQVTVSS”, the “polyreactivity (PSR sort gate)” value is listed as “low polyreactivity”. As for “QVQLVESGGGLVQAGGSLSLSCAASGRNFVINALGWYRQAPGTERELVARIRSGGSTNYADSVKGRFTISRDNAKNTVYLQMNSLKPEDTAVYYCAAYLRTERYGYWGQGTQVTVSS”, the entry is “high polyreactivity”. In the case of “QVQLVESGGGLVQAGGSLSLSCAASGRTFDTYAMGWYRQAPGKERELVASITQSGGTTYYADSVKGRFTISRDNAKNTVYLQMNSLKPEDTAVYYCAARSYGSTSPIRVQLYYWGQGTQVTVSS” it was “high polyreactivity”. As to “QVQLVESGGGLVQAGGSLSLSCAASGRTFFKYAMGWYRQAPGKERELVASITGRGGSTYADSVKGRFTISRDNAKNTVYLQMNSLKPEDTAVYYCAKVYQRGAQYYYYKYDYWGQGTQVTVSS”, the “polyreactivity (PSR sort gate)” value is “high polyreactivity”. In the case of “QVQLVESGGGLVQAGGSLSLSCAASGRTFGSYAMGWYRQAPGKERELVAAITGSGGSTYYADSVKGRFTISRDNAKNNVYLQMNSLKPEDTAVYYCRYLFGYIAMDYWGQGTQVTVSS” it was “low polyreactivity”; in that of “QVQLVESGGGLVQAGGSLSLSCAASGRTFKRYAMGWYRQAPGKERELVAAITSSGTSTYADSVKGRFTISRDNAKNTVYFQMNSLKPEDTAVYYCNRGYFNSRTPTFDYWGQGTQVTVSS”, “low polyreactivity”; in that of “QVQLVESGGGLVQAGGSLSLSCAASGRTFLYNAMGWYRQAPGKERELVAGITQSGSSTYYADSVKGRFTISRDNAKNTVYLQMNSMKPEDTAVYYCAKVLYRRGYKFDYWGQGTQVTVSS”, “low polyreactivity”. As for “QVQLVESGGGLVQAGGSLSLSCAASGRTFQSYAMGWYRQAPGKERELVATITSRGGSTYYADSVKGRFTISRDNAKYTVYLQMNSLKPEVTAVYYCAKRFKSYLGYDYWGQGTQVTVSS”, the entry is “low polyreactivity”; as for “QVQLVESGGGLVQAGGSLSLSCAASGRTFTPNVMGWYRQAPGKERELVAGISSTGGSTYYADSVKGRFTISRDNAKNTVYLHMNSLKPEDTAVYYCAKEYYDGYFPTFDYDYWGQGTQVTVSS”, “low polyreactivity”. In the case of “QVQLVESGGGLVQAGGSLSLSCAASGRTFVYYAMGWYRQAPGKERELVAAISSSGGRTYYADSVKGRFTISRDNAKNTVYLQMNSLKPEDTAVYYCAARRLSPIYDSWGQGTQVTVSS” it was “high polyreactivity”; in that of “QVQLVESGGGLVQAGGSLSLSCAASGRTLYSNAMGWYRPAPGKERELVAAISRRGSSTYYADSVKGRFTISRDNAKNSVFLQMNSLKPEDTAVYYCARYKYTRQTRVEYGYWGQGTQVTVSS”, “high polyreactivity”. With “QVQLVESGGGLVQAGGSLSLSCAASGRTLYVYTMGWYRQAPGKERELVASISSGVGTNYADSVKGRFTISRDNAKNTDYLQMNSLKPEDTAVYYCAARFRYYRHYYWGQGTQVTVSS”, the “polyreactivity (PSR sort gate)” value is “high polyreactivity”. Consider “QVQLVESGGGLVQAGGSLSLSCAASGRTMYTNAMGWYIQAPGKERELVAVITLSTDGTYYADSVKGRFTISRDNAKNTVYLQMNSLKPEDTAVYYCAIGDPDGDREIWRLYYWGQGTKVTVSS”, for which the “polyreactivity (PSR sort gate)” value was “low polyreactivity”. As to “QVQLVESGGGLVQAGGSLSLSCAASGSIFESNAMGLYRQAPGKERELVAAYADSVKGRFTISRDNAKNTVYLQMNSLKPEDTAVYYCAKSLSLYVVPLYEYWGQGTQVTVSS”, the “polyreactivity (PSR sort gate)” value was “low polyreactivity”. Regarding “QVQLVESGGGLVQAGGSLSLSCAASGSIFYYYAMGWYRKAPGKERELVASIRSGGSTNYADSVKGRFTISRDNAKNTVYLQKNSLKPEDTAVYYCAARKFYASSLRYGYWGQCTQVTVSS”, the “polyreactivity (PSR sort gate)” value is “high polyreactivity”. In the case of “QVQLVESGGGLVQAGGSLSLSCAASGSILVGYAMGWYRQAPGKERELVARISTSGGSTTYYADSVKGRFTISRDNAKNTVYLQMNSLKPEDTAVYYCAADYKPYYRRRYDYWGQGTQVTVSS” it was “low polyreactivity”. As to “QVQLVESGGGLVQAGGSLSLSCAASGSNFVYYAMGWSRQAPGKERELVAAINFRGGNTYYADSVKGRFTISRDNAKNTVYLQMNSLKPEDTAVYYCAADYRWKWIGGARYDYWGQGTQVTVSS”, the “polyreactivity (PSR sort gate)” value was “low polyreactivity”. As for “QVQLVESGGGLVQAGGSLSLSCAASGSTFIKNAMGWYRQAPGKESELVAAINWSGTRTYYADSVKGRFTISRDNANNTVYLKMNSLKPEDTAVYYCAKVIARFVRYDYWGQGTQVTVSS”, the entry is “high polyreactivity”; as for “QVQLVESGGGLVQAGGSLSLSCAASGSTFQLYAKGWYRQAPGKERELVAAISGIGDSTYYADSVKWRFTISRDNAKNTVYLLMNSLKPEDTAVYYCAREFSDGLSGKFDYWGHGTQVTVSS”, “low polyreactivity”; as for “QVQLVESGGGLVQAGGSLSLSCAASGSTFSRNTMGRYRQAPRKERELVAGISSSGGSTYYADSVKGRFTISRDNAKNTVYLQMNSLKQEDTAVYYCSARFYVSFVGYNYWGQGTQVTVSS”, “high polyreactivity”.
